Assay results published in IntAct's records for PubMed 17292836.

B1: 26S proteasome non-ATPase regulatory subunit 10 (Mus musculus), Q9Z2X2 (parent)
chain: MEGCVSNIMICNLAYSGKLDELKERILADKSLATRTDQDSRTALHWACSAGHTEIVEFLLQLGVPVNDKDDAGWSPLHIAASAGRDEIVKALLVKGAHVNAVNQNGCTPLHYAASKNRHEIAVMLLEGGANPDAKDHYDATAMHRAAAKGNLKMVHILLFYKASTNIQDTEGNTPLHLACDEERVEEAKFLVTQGASIYIENKEEKTPLQVAKGGLGLILKRLAESEEASM
partner: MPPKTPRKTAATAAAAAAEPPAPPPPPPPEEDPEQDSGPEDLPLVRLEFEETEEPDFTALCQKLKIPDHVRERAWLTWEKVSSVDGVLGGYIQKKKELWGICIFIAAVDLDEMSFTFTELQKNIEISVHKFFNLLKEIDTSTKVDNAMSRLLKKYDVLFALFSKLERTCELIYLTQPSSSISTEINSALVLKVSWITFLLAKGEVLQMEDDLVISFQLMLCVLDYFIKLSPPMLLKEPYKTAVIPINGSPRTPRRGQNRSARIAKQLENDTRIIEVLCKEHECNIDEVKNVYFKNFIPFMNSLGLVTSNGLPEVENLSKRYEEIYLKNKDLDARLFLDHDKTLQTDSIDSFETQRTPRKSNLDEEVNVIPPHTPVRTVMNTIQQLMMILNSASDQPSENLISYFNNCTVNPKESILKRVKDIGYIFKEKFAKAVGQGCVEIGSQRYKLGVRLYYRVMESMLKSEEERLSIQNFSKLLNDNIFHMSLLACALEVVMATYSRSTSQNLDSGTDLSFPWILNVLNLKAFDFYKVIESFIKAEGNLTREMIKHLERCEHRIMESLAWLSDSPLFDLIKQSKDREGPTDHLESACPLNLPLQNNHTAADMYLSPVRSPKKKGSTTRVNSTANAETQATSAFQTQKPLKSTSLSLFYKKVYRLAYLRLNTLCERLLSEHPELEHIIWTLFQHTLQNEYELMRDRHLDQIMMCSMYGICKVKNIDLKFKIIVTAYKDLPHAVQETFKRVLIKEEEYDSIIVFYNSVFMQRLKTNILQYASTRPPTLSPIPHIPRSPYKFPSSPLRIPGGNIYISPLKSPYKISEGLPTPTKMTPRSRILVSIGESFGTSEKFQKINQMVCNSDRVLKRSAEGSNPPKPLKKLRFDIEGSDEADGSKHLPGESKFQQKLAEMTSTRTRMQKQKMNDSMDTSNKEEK

Variants of: B1
Conditions: with rb_human RB1, P06400

Variant	effect of a mutation on the interaction
MEGCVSNIMICNLAYSGKLDELKERILADKSLATRTDQDSRTALHWACSAGHTEIVEFLLQLGVPVNDKDDAGWSPLHIAASAGRDEIVKALLVKGAHVNAVNQNGCTPLHYAASKNRHEIAVMLLEGGANPDAKDHYDATAMHRAAAKGNLKMVHILLFYKASTNIQDTEGNTPLHLACDAERVEEAKFLVTQGASIYIENKEEKTPLQVAKGGLGLILKRLAESEEASM [E182A]	disrupting interaction
